Assay results as given in PMC3955401 (Nature, 2013).
No end group written: not given here.

Columns and labels:
Experiment in all cases: pull-down
[1] = biological target: GST-53BP1 Tudor-UDR (UniProt Q12888 1484-1631)
[2] = biological target: GST-53BP1 Tudor (UniProt Q12888 1484-1603)
[3] = biological target: GST-53BP1 Tudor-UDR L1619A (UniProt Q12888 1484-1631, L1619A)

Measured: binding result

GST-53BP1 Tudor-UDR, sequence (Q12888 1484-1631): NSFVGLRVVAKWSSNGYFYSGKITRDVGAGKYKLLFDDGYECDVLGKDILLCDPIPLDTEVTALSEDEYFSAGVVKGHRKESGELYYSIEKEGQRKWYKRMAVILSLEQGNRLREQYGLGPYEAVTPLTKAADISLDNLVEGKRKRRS
GST-53BP1 Tudor-UDR L1619A, sequence (Q12888 1484-1631 L1619A): as the sequence (Q12888 1484-1631) above, with L136A counted along it
GST-53BP1 Tudor, sequence (Q12888 1484-1603): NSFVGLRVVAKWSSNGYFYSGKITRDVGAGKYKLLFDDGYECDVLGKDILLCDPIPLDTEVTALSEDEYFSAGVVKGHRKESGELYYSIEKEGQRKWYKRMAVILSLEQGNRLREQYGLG

YGKGGAKRHRK(dimethyl)VLRD [H4K20me2 peptide]
binds: all assays above
